Data from PMC2668204 (Cellular signalling, 2009).

Biological target: venus-labeled Gβγ dimers (venus155–239-Gβ1 with venus1–155-Gγ2) (human, UniProt P62873 1-340; P59768 1-71)
Assay: FRET or BRET

B1: masGRK3ct-Rluc8 (domain or fragment)
chain: MGSSKSKTSNSGIKLLDCDQELYKNFPLVISERWQQEVAETVYEAVNADTDKIEARKRAKNKQLGHEEDYALGRDCIVHGYMLKLGNPFLTQWQRRYFYLFPNRLEWRGEGESRQSLLTMEQIVSVEETQIKDKKCILLRIKGGKQFVLQCESDPEFVQWKKELTETFMEAQRLLRRAPKFLNKSRSAVVELSKPPLCHRNSNGL
modifications: myristoylation directed by the N-terminal mas peptide
  adenosine-induced BRET increase (highest relative expression of C-TM-Gα i1): 0.025 ± 0.003
  adenosine-induced BRET increase (lowest relative expression of C-TM-Gα i1): 0.05 ± 0.007
